Assay results from US20220017635A1 (Kyowa Kirin, published 2022).

Legend:
[1] = target: T1, human EGFR on cells (human, UniProt P00533 25-1210); experiment: flow cytometry on OE21 cells; x axis PE-A [D]
T1 construct: also called membrane-associated EGFR on OE21 cells

[2] = target: T2, human EGFR-FLAG-Fc (human, UniProt P00533 25-638); experiment: phage ELISA on immobilized EGFR-Fc (Example 5)
T2 construct: also called human EGFR-Fc

[3] = target: T3, mouse TfR on CHO cells (mouse, UniProt Q62351 1-763); experiment: flow cytometry on mouse TfR/CHO cells
T3 construct: also called mouse TfR/CHO
Experimental: Subsequently, an epitope analysis for various types of TfR antibodies was carried out.

[4] = target: T4, huTfR with mouse apical domain (human/mouse chimera, UniProt P02786 89-760); experiment: ELISA on immobilized chimeric TfR
T4 construct: His tag added; also called chimeric protein of human TfR extracellular domain with mouse apical domain
T4 chain: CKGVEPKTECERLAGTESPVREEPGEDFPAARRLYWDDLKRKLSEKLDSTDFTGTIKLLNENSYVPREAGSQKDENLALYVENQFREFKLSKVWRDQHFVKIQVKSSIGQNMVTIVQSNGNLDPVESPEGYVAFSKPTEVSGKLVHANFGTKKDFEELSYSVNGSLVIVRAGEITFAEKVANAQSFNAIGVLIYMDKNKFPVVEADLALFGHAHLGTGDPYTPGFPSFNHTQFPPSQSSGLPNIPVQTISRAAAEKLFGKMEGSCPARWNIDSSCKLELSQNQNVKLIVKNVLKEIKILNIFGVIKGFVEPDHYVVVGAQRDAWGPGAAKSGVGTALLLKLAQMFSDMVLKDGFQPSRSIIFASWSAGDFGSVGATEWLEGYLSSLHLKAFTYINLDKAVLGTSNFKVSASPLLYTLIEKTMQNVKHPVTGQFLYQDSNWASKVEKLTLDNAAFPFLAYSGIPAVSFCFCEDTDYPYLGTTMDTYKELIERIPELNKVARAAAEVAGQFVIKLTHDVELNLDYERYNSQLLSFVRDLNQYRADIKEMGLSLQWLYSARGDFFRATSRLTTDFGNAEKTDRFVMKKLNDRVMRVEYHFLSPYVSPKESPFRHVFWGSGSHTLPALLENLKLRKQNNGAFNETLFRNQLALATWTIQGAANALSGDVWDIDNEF
Experimental: (§1) ELISA was carried out by the following method. To a 96-well immunoplate (NUNC, Inc.) on which an antigen protein was immobilized, 1% (w/v) BSA-PBS(−) pH 7.0 without KCl (hereinafter referred to as blocking solution, Nacalai Tesque, Inc.) was added to perform blocking at room temperature, and thereafter, the anti-TfR antibody diluted with the same solution was added thereto and a reaction was allowed to proceed at room temperature for 1 hour. Thereafter, washing was performed with 0.05% (w/v)-tPBS (1×) without KCl (pH 7.2) (hereinafter referred to as washing solution, Nacalai Tesque, Inc.), Anti-Human IgG (Fc) Goat IgG Fab″-HRP (IBL, Inc.) diluted with the blocking solution was added thereto, and a reaction was allowed to proceed at room temperature for 1 hour. Thereafter, washing was performed with the washing solution, and 1-Step (registered trademark) Ultra TMB-ELISA Substrate Solution (Thermo, Inc.) was added thereto, and a reaction was allowed to proceed at room temperature. The coloring reaction was stopped by adding a 5 N HCl solution, and an absorbance at a wavelength of 450 nm (reference wavelength: 570 nm) was measured using a plate reader (EPOCH 2: BioTek Instruments, Inc.).
(§2) Further, a value obtained by subtracting the absorbance at the reference wavelength of 570 nm from the absorbance at a wavelength of 450 nm was regarded as the binding activity to any of various types of antigen proteins, and a case where a value obtained by dividing the binding activity to any of various types of chimeric TfR by the binding activity to His-huTfR was 0.5 or more was denoted by ++, a case where the value was 0.2 or more and less than 0.5 was denoted by +, and a case where the value was less than 0.2 was denoted by −.

[5] = target: T5, chimeric TfR A02 (human/mouse chimera, UniProt P02786 89-760); experiment: ELISA on immobilized chimeric TfR
T5 construct: also called D352S-S355A-D356R-K358N
T5 chain: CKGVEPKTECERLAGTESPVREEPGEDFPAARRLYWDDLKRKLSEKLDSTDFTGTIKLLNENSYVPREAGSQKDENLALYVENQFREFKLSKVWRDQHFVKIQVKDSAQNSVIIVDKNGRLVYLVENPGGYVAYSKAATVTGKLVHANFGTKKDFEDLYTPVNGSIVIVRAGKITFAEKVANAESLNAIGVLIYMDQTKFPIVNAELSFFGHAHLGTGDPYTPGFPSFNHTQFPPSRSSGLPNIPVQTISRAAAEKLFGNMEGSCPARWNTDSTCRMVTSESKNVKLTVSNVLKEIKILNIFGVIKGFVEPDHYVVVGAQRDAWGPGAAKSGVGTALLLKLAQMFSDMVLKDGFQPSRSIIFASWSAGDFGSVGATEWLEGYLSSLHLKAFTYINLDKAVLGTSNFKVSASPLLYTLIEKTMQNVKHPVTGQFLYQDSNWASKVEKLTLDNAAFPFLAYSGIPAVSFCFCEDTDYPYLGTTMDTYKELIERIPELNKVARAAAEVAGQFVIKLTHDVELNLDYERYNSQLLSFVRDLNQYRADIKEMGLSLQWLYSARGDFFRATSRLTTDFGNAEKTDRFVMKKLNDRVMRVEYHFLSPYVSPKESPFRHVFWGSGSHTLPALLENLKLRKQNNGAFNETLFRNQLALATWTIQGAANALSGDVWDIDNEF
Experimental: as §1, §2

[6] = target: T6, chimeric TfR A07 (human/mouse chimera, UniProt P02786 89-760); experiment: ELISA on immobilized chimeric TfR
T6 construct: also called M365L-V366E-E369Q
Experimental: as §1, §2

[7] = target: T7, chimeric TfR A14 (human/mouse chimera, UniProt P02786 89-760); experiment: ELISA on immobilized chimeric TfR
T7 construct: also called D204Q-K205S-E369Q
Experimental: as §1, §2

[8] = target: T8, monkey TfR on CHO cells (monkey); experiment: flow cytometry of monoclonal phage (scFv) on monkey TfR/CHO cells
T8 construct: also called monkey TfR/CHO cells
T8 chain: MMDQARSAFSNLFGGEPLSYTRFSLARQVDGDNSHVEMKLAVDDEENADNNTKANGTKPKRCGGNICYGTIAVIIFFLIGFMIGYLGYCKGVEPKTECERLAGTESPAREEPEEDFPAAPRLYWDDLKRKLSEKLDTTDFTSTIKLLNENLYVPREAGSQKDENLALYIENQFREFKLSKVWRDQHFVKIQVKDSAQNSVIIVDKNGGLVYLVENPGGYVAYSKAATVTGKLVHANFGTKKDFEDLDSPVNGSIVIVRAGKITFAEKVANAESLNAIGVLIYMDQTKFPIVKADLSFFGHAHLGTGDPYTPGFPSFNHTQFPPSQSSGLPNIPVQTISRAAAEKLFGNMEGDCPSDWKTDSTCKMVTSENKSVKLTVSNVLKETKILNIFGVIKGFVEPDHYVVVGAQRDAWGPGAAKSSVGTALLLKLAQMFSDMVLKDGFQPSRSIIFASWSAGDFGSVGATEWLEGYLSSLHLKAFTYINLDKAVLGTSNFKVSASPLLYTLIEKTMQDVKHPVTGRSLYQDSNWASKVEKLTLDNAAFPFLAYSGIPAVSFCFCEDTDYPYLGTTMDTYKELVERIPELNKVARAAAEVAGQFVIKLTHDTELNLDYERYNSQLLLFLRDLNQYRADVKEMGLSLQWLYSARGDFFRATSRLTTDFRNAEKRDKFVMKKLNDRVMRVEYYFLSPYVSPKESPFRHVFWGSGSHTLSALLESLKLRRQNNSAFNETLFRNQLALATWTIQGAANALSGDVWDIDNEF
Experimental: After the reaction was allowed to proceed under 4° C. for 30 minutes, each well was washed 3 times with PBS-T.

[9] = target: T9, huTfR with mouse protease-like domain (human/mouse chimera); experiment: ELISA on immobilized chimeric TfR; grade = binding relative to His-huTfR (++ 0.5 or more, + 0.2 to less than 0.5)
T9 construct: His tag added; also called chimeric protein of human TfR extracellular domain with mouse protease-like domain
T9 chain: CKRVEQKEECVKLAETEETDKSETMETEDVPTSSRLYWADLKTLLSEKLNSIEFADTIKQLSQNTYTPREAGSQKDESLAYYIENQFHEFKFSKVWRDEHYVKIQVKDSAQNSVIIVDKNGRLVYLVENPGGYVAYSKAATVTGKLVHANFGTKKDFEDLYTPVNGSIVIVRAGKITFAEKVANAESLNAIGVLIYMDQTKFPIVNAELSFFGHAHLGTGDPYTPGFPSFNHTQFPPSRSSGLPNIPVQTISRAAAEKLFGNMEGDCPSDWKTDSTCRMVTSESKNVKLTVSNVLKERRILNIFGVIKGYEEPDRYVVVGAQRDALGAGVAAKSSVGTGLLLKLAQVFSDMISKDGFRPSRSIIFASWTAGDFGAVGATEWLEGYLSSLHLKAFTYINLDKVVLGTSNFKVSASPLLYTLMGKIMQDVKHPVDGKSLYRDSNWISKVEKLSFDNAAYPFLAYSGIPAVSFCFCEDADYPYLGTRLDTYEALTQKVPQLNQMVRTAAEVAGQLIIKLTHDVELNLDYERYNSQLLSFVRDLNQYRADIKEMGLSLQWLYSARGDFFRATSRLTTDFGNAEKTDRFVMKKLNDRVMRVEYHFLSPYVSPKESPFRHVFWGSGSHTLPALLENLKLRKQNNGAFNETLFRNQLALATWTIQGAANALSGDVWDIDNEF
Experimental: as §1, §2

[10] = target: T10, chimeric TfR A03 (human/mouse chimera, UniProt P02786 89-760); experiment: as above
T10 construct: also called D245E-K261E
Experimental: as §1, §2

[11] = target: T11, chimeric TfR A04 (human/mouse chimera, UniProt P02786 89-760); experiment: as above
T11 construct: also called D245E-K261E-D356R
Experimental: as §1, §2

[12] = target: T12, chimeric TfR A05 (human/mouse chimera, UniProt P02786 89-760); experiment: as above
T12 construct: also called P249S-L274F
Experimental: as §1, §2

[13] = target: T2, human EGFR-FLAG-Fc; experiment: phage ELISA (scFv) on immobilized human EGFR-Fc
Experimental: Specifically, it was carried out by adding a phage solution diluted with PBS-T containing 10% Block Ace (manufactured by Dainippon Pharmaceutical Co., Ltd.) to a 96-well immunoplate (NUNC, Inc.) on which an antigen protein was immobilized to allow a reaction to proceed at room temperature for 1 hour, followed by washing with PBS-T, and then, adding an anti-M13 antibody (manufactured by GE Healthcare, Inc.) labeled with horseradish peroxidase diluted with 1% BSA-PBS thereto to allow a reaction to proceed at room temperature for 1 hour.
The confirmation of a clone that specifically recognizes human and monkey EGFR-Fc was carried out by the ELISA method.

[14] = target: T13, monkey EGFR-FLAG-Fc (monkey, UniProt P55245 25-638); experiment: phage ELISA (scFv) on immobilized monkey EGFR-Fc
T13 construct: also called monkey EGFR-Fc; not shown: FLAG-Fc added to the C terminus

[15] = target: T1, human EGFR on cells; experiment: flow cytometry on OE21 cells; x axis Alexa Fluor 488-A [C]

B1: KME07 (antibody, V domains shown)
VH: QVQLVQSGAEVKKPGSSVKVSCKASGGTFSSFAFGWVRQAPGQGLEWMGEVRPGFGTEILTQNFQDRVTITADESTSTTYMELRSLKSEDTAVYYCARGLLRGGYIENPFEIWGQGTLVTVSS
VL: DIQMTQSPSSLSASVGDRVTITCRASQGISSWLAWYQQKPEKAPKSLIYAASSLQSGVPSRFSGSGSGTDFTLTISSLQPEDFATYFCQQYYNYPYTFGQGTKLEIK
notes: IgG4PE or IgG4PE R409K; also called anti-EGFR antibody KME07
[1]
  binding result: binds

B2: KME11 (antibody, V domains shown)
VH: QVQLVQSGAEVKKPGSSVKVSCKASGGTLSTYGITWVRQAPGQGFAWMGEIIPSLGIVNYAQKFQGRVTITADESTSTVYMELSSVTYEDTAVYYCAGDELSEGHSEYYHGMDVWGQGTTVTVSS
VL: B1 VL
notes: IgG4PE or IgG4PE R409K; also called anti-EGFR antibody KME11; KME1l
[2]
  binding result: binds

B3: cyno186 (antibody, V domains shown)
VH: QVQLVESGGEFVQPGGSLRLSCAASGFPFKGYAMNWVRQAPGKGLEWVSRISNGGSYIDYADSVKGRFTISRDNSKNTLYLQIDSLRTEDTAVYYCAKAKDAYRWNNAIDEWGQGTLVTVSS
VL: not shown
notes: also called anti-TfR antibody cyno186
[3]
  binding result: no binding
[4]
  ratio of ELISA binding activity (A450-A570) to chimeric TfR over that to His-huTfR: < 0.2 ratio
[5]
  ratio of ELISA binding activity (A450-A570) to chimeric TfR over that to His-huTfR: < 0.2 ratio
[6]
  ratio of ELISA binding activity (A450-A570) to chimeric TfR over that to His-huTfR: < 0.2 ratio
[7]
  ratio of ELISA binding activity (A450-A570) to chimeric TfR over that to His-huTfR: < 0.2 ratio
[8]
  binding result: binds
[9]
  ratio of ELISA binding activity (A450-A570) to chimeric TfR over that to His-huTfR: ≥ 0.5 ratio
[10]
  ratio of ELISA binding activity (A450-A570) to chimeric TfR over that to His-huTfR: ≥ 0.5 ratio
[11]
  ratio of ELISA binding activity (A450-A570) to chimeric TfR over that to His-huTfR: 0.2 to 0.5 ratio
[12]
  ratio of ELISA binding activity (A450-A570) to chimeric TfR over that to His-huTfR: ≥ 0.5 ratio

B4: E17 (antibody, V domains shown)
VH: QVQLQQWGAGLLKPSETLSLTCALYSGSFSAQDWSWIRQSPEKGLEWIGEIWQGGKTNYNPSLKSRVSISRDNSKNQLSLQLSSVTAADTAVYYCARVDWSYRVFEIWGQGTMVTVSS
VL: not shown
notes: also called anti-EGFR antibody E17
[13]
  binding result: binds
[14]
  binding result: binds
[15]
  binding result: binds
